Measured values published in US20190336574A1 (TRUSTEES OF PRINCETON UNIVERSITY, published 2019).

Key:
murine SND1, wild type = target: T1, murine SND1, wild type (mouse, UniProt Q78PY7 1-910); assay: anti-MTDH co-IP from PyMT;Mtdh-/- tumor cells reconstituted with murine MTDH, western blot
T1 construct: Endogenous protein of murine PyMT mammary tumor cells; also called SND1 (in PyMT tumor cells); WT shRNA-resistant murine SND1
T1 sequence (looked up): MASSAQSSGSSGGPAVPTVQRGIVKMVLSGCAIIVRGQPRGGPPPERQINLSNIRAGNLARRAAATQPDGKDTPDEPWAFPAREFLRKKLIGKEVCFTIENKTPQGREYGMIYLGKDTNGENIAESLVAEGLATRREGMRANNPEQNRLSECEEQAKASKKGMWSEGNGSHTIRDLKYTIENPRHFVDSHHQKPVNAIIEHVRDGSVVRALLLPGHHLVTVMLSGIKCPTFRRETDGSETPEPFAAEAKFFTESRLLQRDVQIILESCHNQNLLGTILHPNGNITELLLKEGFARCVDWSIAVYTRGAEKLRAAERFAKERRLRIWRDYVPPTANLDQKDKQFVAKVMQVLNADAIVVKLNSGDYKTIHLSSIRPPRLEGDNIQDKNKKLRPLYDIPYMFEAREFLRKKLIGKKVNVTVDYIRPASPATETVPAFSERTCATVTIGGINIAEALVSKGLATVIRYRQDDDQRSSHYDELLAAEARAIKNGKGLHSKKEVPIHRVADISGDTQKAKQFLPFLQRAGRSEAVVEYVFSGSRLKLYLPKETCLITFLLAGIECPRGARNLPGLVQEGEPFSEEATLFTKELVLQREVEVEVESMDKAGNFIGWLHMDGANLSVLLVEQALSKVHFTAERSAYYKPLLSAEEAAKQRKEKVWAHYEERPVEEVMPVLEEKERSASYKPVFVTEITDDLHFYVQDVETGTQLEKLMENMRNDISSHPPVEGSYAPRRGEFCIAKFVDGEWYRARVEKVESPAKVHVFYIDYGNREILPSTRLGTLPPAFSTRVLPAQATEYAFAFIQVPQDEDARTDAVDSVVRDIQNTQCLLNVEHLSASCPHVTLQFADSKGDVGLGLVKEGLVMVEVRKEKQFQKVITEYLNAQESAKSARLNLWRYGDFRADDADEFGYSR
Method: (FIG. 23A) Lysates from PyMT;Mtdh−/− tumor cells reconstituted with vector control, WT or mutant murine MTDH were immunoprecipitated with anti-MTDH antibody and immunoblotted for indicated proteins. Note all amino acid annotations are based on human MTDH. W394 and W401 of human MTDH correspond to W391 and W398 in murine MTDH, respectively. (FIG. 23B) Mammosphere assays were performed with PyMT;Mtdh−/− tumor cells reconstituted with indicated MTDH constructs. (FIG. 23C-E) In vivo tumor formation (FIG. 23C for tumor incidence; FIG. 23D, FIG. 23E for tumor volumes) were performed at limiting numbers using PyMT;Mtdh−/− tumor cells reconstituted with indicated WT or mutant MTDH. Statistics: (FIG. 23B) Student's t-test. Data represent mean±SEM. (FIG. 23C) Limiting dilution analysis. (FIG. 23D, FIG. 23E) Mann-Whitney test. **p<0.01, *p<0.05.
Immunoprecipitation and western blot: For in vivo immunoprecipitation (IP) experiments, cultured cells were washed in cold PBS and lysed in lysis buffer (20 mM Tris pH 7.4, 0.15 M NaCl, 1 mM EDTA, 1 mM EGTA, 1% Tx-100, 0.0025 M Na2P2O7, 1 mM β-glycerolphosphate, 1 mM Na3VO4, and 1 mM NaF) with an EDTA-free protease inhibitor mixture (Roche Applied Science) and PMSF. Cell lysates were then incubated on ice for 10 min, centrifuged, and precleared by incubating with protein A/G beads (Santa Cruz Biotechnology) for 1 h at 4° C. […]

[1] = target: T2, murine SND1 F250A (shRNA-resistant construct) (mouse, UniProt Q78PY7 1-910); assay: co-IP (anti-MTDH) from SND1-KD PyMT;Mtdh+/+ tumor cells reconstituted with SND1 constructs, western blot
T2 sequence (looked up): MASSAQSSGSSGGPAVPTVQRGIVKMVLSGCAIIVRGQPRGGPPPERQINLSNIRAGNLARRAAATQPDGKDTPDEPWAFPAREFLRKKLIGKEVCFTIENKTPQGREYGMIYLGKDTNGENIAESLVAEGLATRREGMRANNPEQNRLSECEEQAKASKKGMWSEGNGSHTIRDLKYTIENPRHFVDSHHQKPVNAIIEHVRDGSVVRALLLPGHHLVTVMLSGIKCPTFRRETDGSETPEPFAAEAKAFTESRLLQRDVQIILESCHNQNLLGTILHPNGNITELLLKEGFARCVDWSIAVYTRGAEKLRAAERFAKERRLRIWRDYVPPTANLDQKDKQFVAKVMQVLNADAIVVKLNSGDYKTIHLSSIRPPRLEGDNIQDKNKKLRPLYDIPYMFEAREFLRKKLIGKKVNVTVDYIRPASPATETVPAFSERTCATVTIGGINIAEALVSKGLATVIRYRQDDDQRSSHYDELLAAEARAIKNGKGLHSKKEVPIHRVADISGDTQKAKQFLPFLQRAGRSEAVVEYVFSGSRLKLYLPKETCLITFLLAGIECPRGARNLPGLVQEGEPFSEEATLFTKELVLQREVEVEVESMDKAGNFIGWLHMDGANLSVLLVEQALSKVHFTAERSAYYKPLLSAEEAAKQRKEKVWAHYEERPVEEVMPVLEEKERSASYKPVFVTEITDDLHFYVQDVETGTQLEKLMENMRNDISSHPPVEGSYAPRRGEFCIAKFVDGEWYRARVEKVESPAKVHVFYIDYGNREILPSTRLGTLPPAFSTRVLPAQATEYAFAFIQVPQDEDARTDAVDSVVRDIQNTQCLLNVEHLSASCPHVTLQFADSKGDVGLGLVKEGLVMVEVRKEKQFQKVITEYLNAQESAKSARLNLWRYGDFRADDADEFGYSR

[2] = target: T3, murine SND1 R255E (shRNA-resistant construct) (mouse, UniProt Q78PY7 1-910); assay: as above
T3 sequence (looked up): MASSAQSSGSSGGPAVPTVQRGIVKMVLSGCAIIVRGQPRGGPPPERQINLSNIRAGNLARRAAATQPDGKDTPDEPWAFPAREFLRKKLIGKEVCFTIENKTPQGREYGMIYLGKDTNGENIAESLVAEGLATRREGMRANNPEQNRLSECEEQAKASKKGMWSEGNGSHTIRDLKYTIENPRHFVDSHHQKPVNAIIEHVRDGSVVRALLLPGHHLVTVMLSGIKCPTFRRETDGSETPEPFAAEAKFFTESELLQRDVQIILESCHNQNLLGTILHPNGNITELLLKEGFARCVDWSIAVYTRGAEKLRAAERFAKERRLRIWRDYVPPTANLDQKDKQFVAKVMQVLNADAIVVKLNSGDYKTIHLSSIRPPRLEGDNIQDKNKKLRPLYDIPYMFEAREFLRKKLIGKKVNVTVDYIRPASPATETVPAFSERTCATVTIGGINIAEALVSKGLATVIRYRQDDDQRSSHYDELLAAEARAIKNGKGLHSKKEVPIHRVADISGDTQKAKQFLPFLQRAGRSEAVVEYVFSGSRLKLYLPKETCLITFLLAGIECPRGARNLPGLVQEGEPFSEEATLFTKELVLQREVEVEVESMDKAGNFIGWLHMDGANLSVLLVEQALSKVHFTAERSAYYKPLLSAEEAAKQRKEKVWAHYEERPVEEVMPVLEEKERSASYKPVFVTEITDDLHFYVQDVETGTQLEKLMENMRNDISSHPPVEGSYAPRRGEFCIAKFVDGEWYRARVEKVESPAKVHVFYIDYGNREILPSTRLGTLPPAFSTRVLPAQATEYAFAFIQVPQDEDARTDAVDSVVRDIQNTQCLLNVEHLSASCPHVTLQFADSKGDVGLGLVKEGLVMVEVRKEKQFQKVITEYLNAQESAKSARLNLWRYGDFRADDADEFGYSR

B1: murine MTDH, wild type (other, mouse, UniProt Q80WJ7 1-579, looked up)
chain: MAARSWQDELAQQAEEGSARLRELLSVGLGFLRTELGLDLGLEPKRYPGWVILVGTGALGLLLLFLLGYGWAAACAGARKKRRSPPRKREEAAPPTPAPDDLAQLKNLRSEEQKKKNRKKLPEKPKPNGRTVEVPEDEVVRNPRSITAKQAPETDKKNEKSKKNKKKSKSDAKAVQNSSRHDGKEVDEGAWETKISHREKRQQRKRDKVLTDSGSLDSTIPGIENIITVTTEQLTTASFPVGSKKNKGDSHLNVQVSNFKSGKGDSTLQVSSRLNENLTVNGGGWSEKSVKLSSQLSEEKWNSVPPASAGKRKTEPSAWTQDTGDTNANGKDWGRNWSDRSIFSGIGSTAEPVSQSTTSDYQWDVSRNQPYIDDEWSGLNGLSSADPSSDWNAPAEEWGNWVDEDRASLLKSQEPISNDQKVSDDDKEKGEGALPTGKSKKKKKKKKKQGEDNSHTQDTEDLEKDTREELPVNTSKARPKQEKACSLKTMSTSDPAEVLIKNSQPVKTLPPAISAEPSITLSKGDSDNSSSQVPPMLQDTDKPKSNAKQNSVPPSQTKSETNWESPKQIKKKKKARRET
notes: Re-expressed by lentivirus in PyMT;Mtdh-/- tumor cells; also used for the endogenous protein of PyMT;Mtdh+/+ cells (same protein); also called mouse MTDH; WT MTDH (murine form)
B1: binds (murine SND1, wild type); no binding [1]; no binding [2].
